Here are results for 16 molecules from patent US20220195015A1 (published 2022).

The target of assay [1] is SARS-CoV-2 spike receptor binding domain (RBD), wild type (SARS-CoV-2, UniProt P0DTC2 319-539). As to the kind of experiment: ELISA, RBD protein coated, mAb titrated.
For assay [2], the target named is SARS-CoV-2 receptor binding domain (RBD), wild type (SARS-CoV-2, UniProt P0DTC2 319-539). Kind of assay: ELISA, RBD protein coated, mAb titrated. Background: In an ELISA, binding on a coated surface is turned into a signal by an enzyme label.

B1: C596 (antibody, V domains shown)
VH: QVQLVESGGGVVQPGRSLRLSCAASGITFSHYGMHWVRQAPGKGLEWVALISSDGSKKYYADSVKGRFTISRDNSKSTLYLQMNSLRAEDTAIYYCAKDLGYYYGPPYGPDYWGQGTLVTVSS
VL: DIQMTQSPSSLSASVGDRVTITCQASQDVSNSLNWYQQKPGKAPKLLIYDASNLETGVPSRFSGSGSGTDFSFTISSLQPEDIATYYCLQYDNFSMYTFGQGTKLEIK
As for B1, a half-maximal effect in assay [1] (EC50) was put at 21 ng/mL.

B2: C057 (antibody, V domains shown)
VH: QVQLVQSGAEVKRPGASVKLSCKASGYIFTDYSIHWVRQAPGQGLEWMGWVNPNSGGGNSAQKFMDWVTMARDTSITTVYMELSRLRSDDTAVYYCARGPLFHKLVYDSWSGYHDGFDIWGQGTMVTVSS
VL: QSALTQPASVSGSPGQSITISCTGTSSDVGAYKFVSWYQQHPGKAPQLIIYEVSNRPSGVSNRFSGSKSGNTASLTISGLQAEDEADYYCSSYTNASTWVFGGGTELTVL
Turning to B2, a half-maximal effect in assay [2] (EC50) was put at 2.31 ng/mL.

B3: C593 (antibody, V domains shown)
VH: QVQLVQSGAEVKKPGASVKVSCKASGYTFTSYDINWVRQAPGQGLEWMGWMNPNSGNTDYAQKFQGRFTMTRNTSISTAYMELSSLRSEDTAVYYCASRRWDPLTFYYYMVVWGKGTTVTVSS
VL: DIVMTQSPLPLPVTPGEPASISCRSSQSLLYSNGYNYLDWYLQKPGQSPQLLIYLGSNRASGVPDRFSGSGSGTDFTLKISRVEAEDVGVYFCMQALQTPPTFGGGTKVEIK
B3: the EC50 – broadly, the concentration needed to bring the measured effect to its halfway point – in assay [1] stood at 4.36 ng/mL.

B4: C566 (antibody, V domains shown)
VH: QVQLQESGPGLVKSSQTLSLNCSVFGASISSGGYYWTWIRQHPGKGLEWIGYIHYRGTYYNPSLKSRVTMSVDTSKNQFSLKVRSVSAADTAIYYCARAIVVVTLNWFDLWGQGTLVTVSS
VL: NFMLTQPHSVSESPGKTVTISCSGSGGSIASNYVQWYQQRPGSAPTAVIYEDNQRPSGVPDRFSGSIDSSSNSASLTISGLKTEDEADYYCQSYDTSNPVIFGGGTKLTV
With B4, in assay [1], the response was half-maximal at 5.88 ng/mL (EC50).

B5: C580 (antibody, V domains shown)
VH: EVQLVQSGAEVKKAGESLKISCNSSGYSFTNYWIAWVRQVPGKGLEWMGIIYLGDSDTRYSPSFQGRVTISADKSISAAYLHWSSLKASDTAIYYCARGGPPGGVKLELTDFWGQGTLVTVSS
VL: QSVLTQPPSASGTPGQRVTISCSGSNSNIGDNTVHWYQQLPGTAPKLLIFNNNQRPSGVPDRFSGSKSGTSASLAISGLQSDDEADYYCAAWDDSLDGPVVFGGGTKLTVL
Consider B5, for which, in assay [1], the EC50 is 1.81 ng/mL.

B6: C594 (antibody, V domains shown)
VH: QVQLVESGGGVVQPGRSLRLSCAASGFTFSSYGMHWVRQAPGKGLEWVAVISDDGSNKYYADSVKGRFTISRDNSKNTLYLQMNSLRAEDTAVYYCAKSWWLSENWFDPWGQGTLVTVSS
VL: EIVMTQSPATLSVSPGERATLSCRASQSVSSNLAWYQQKPGQAPRLLIYGASTRATGIPARFSGTGSGTEFTLTISSLQSEDFAVYYCQQYNNWPLTFGGGTKVEIK
In assay [1], B6 showed an EC50 of 2.63 ng/mL.

B7: C595 (antibody, V domains shown)
VH: QVQLVESGGGVVQAGRSLRLSCAASGFTFSSFGLHWVRQAPGKGLEWVAVISDDGANKYYADSVKGRFTISRDNSKNTLYLQMNSLRADDTAKYYCAKSWWLSENWFDPWGQGTLVTVSS
VL: EIVMTQSPATLSVSPGERATLSCRASQSVRSNLAWYQQKPGQAPRLLIYGASTRATGIPARFSGSGSGTDFTLTISSLQSEDFAVYYCQQYNNWPLTFGGGTKVEIK
Molecule B7 registered a concentration giving a half-maximal response (EC50) in assay [1] of 2.04 ng/mL.

B8: C569 (antibody, V domains shown)
VH: QVQLVESGGNVVQPGRSLRLSCAASGFTFSNYGMHWIRQAPGKGLEWVAVISYDGSDKYYADSVKGRVTISRDNSKNTLYLQMNSLRAEDTAVYYCAKGGPYGDHVRSDYWGLGTLVTVSS
VL: DIQMTQSPSSLSASVGDRVTITCQASQDISNYLNWYQQKPGKVPKLLIYDASNLETGVPSRFSGSGSGTDFTFTISSLQPEDIATYYCQQFHNLPLTFGQGTKLEIK
On to B8, for which the 50% effective concentration (EC50) in assay [1] was 11.1 ng/mL.

B9: C565 (antibody, V domains shown)
VH: EVQLVESGGGLIQPGGSLRLSCAASGLIVSSNYMNWVRQAPGKGLEWVSLLYSGGSTYYADSVKGRFTISRDNSKNTLYLQMNSLRPEDTAVYYCARDLSVVGAFDIWGQGTMVTVSS
VL: EIVLTQSPGTLSLSPGERATLSCRASQSLPSTYLAWYQQKRGQAPRLLIYGASSRATGIPDRFSGSGSGTDFTLTISRLEPEDFAVYYCQQYGTSPRVTFGPGTKVDIK
B9 came in with an EC50 in assay [1] of 1.27 ng/mL. This EC50 lies about 8.7-fold lower than the previous one.

B10: C591 (antibody, V domains shown)
VH: QVQLVQSGAEVKKPGASVKVSCKASGYILTDYFIHWVRQAPGQGLEWMGWINPNSGGTNYAQKFQGRVTMTRDTSISTAYMELSRLRSDDTAVYHCARYKGTTVNTNYYYGMDVWGQGTTVTVSS
VL: not shown
B10 came in with a concentration giving a half-maximal response (EC50) in assay [1] of 3.83 ng/mL.

B11: C592 (antibody, V domains shown)
VH: QVQLVQSGAEVKKPGASVKVSCKASGYTFTDYFNHWVRQAPGQGLEWMGWINPNSGGTNSAQKFQGRVTMTRDTSITTVYMELSRLRSDDTAVYYCARYKGTTVNTNYYYGMDVWGQGTTVTVSS
VL: SYELTQPPSVSVSPGQTASITCSGDKLRNKYACWYQQKAGQSPMLVIYQDTKRPSGIPERFSGSNSGNTATLTISGTQAMDEADYYCQAWDISTVVFGGGTKLTVL
The molecule B11 gave an EC50 in assay [1] of 6 ng/mL.

B12: C567 (antibody, V domains shown)
VH: QVQLQESGPGLVKPSETLSLTCTVSGGSVINGSYYWSWIRQPPGKGLEWIGFVYYSGSTNYNPSLKSRVTISVDTSKNQFSLNLNSVTAADTAVYYCATGSKSSYYFDYWGQGTLVTVSS
VL: QSVLTQPPSVSAAPGQKVTISCSGSSSNIGNNYVSWYQQLPGAAPKLLIYENNMRPSGIPDRFSGSKSGTSATLGITGLQTGDEADYYCGTWDSSLSVPYVFGTGTRVTVL
Turning to B12, the EC50 in assay [1] is 18.9 ng/mL.

B13: C578 (antibody, V domains shown)
VH: QVQLVESGGGVVQPGRSLRLSCAASGFTFSSSGMHWVRQAPGKGLEWVAIISYDGSNKYYADSVKGRFTISRDNSKNTLSLQMNSLRAEDTAVYYCAKDPLPFRDFFYYYMDVWGKGTTVTVSS
VL: QSALTQPASVSGSPGQSITISCTGTSSDVGGYNYVSWYQQHPGKAPKLMIYDVSNRPSGVSNRFSGSKSGNTASLTISGLQAEDEADYYCSSYTSSSTLGVFGTGTKVTVL
Consider B13, for which, in assay [1], the EC50 is 1.08 ng/mL.

B14: C570 (antibody, V domains shown)
VH: QVQLQESGPGLVKPSETLSLTCTVSGASISSYYWSWIRQPPGKGLEWIGYIYYSGSTNYNPSLKSRVTISLDTSKNQFSLQLSSVTAADTAVYYCATYYFDNSGYSYGLDVWGQGTTVTVSS
VL: DIQMTQSPSSLSASVGDRVTIACRASQSISSYLHWYQQQPGKAPKLLIYAVTNLQSGVPSRFSGSGSGTDFTLTISSLQPEDFATYYCQQSYSLPQTFGQGTKVEIK
B14 displayed an EC50 in assay [1] of 0.74 ng/mL. The EC50 values of the last two molecules are within 1.5-fold of each other.

B15: C568 (antibody, V domains shown)
VH: QVQLVQSGAEVKKPGASVKVSCTASGYTFSSYYIHWVRQAPGQGLEWMGIINPGAGSTSYAQKFQGRVAMTTDTSTRTVYMELSSLRSDDTAVYYCARDEAFLPSAIFVGDYWGQGTLVTVSS
VL: DIQMTQSPSSLSASVGDRVTITCRASQGIRNDLGWYQQKPGKAPKRLIYAASNLQSGVPSRFSGSGSGTEFTLTISSLQPEDFATYYCLQHSTYPHTWTFGQGTKVEIK
Consider B15, for which, in assay [1], a half-maximal response (EC50) required 5.99 ng/mL.

B16: C581 (antibody, V domains shown)
VH: EVQLVQSGAEVKKPGESLKISCKGSGYRFTSYWIAWVRQMPGKGLEWMGIIYPGDSDTRYSPSFQGQVTISADQSISTAYLQWSSLKASDTAMYYCARGGPPGGVKLELTDYWGQGALVTVSS
VL: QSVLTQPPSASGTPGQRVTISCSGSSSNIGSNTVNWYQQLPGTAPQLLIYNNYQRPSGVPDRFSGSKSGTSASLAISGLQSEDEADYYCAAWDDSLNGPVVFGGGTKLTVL
As to B16, the EC50 in assay [1] worked out at 1.58 ng/mL. Compared with the last molecule, the EC50 is about 3.8-fold lower.
